Test results published in patent publication US20230226096A1 (Orna Therapeutics, Inc., priority 2020, published 2023).

B1: Pigeon picornavirus B (nucleic acid)
DNA: TTTATTTAGCTGTTAAGTTTTATTTGTGCCGAGACCCCATAGTAGGATCTTGGTGTTCCACATTAAGCTCTCCCGACCACACATCCAAACGATAGGCGGTGTAAGGGCTCCCTGGCTAAGTGTTTACTCATTGCTAGGGAAGTGTTGCGACCCGTTACCAGTAGGAATACAGGAGGTCTTAGTTGCCTAACCAGATAAAGTGGTGCTGAAATATTGCAAGCTCAATGTCTGGCGAACGACGGACTACCGTTGAACTATTGTTAACGCCCGCGTGTGTAGGCAACACACGGGTTAGTAGGTCACTTACATTGACATCCGTGCCGGGAAAGCGGATCTGAGCTATCGATTGCCTGATAGGGTGCCGGCGGGCGCGGTACGTGTGGTATAGTCCGCTGTCTTGGGGTATGGCGTCTACTCGGTTTTGTTGTCGTTTTGGAATGTCCCATGTCGGAGATGTCGTTACCGGTGTTTGCTTTACTTGTGCACGAATAAGAAAACAGAGTTTGGAGTTTTGGAAGTTAATGGATAACATCAAGTTTCCATTGCGTTCCTCGTGCATTTTAGGCCAGAAAATCGACCACAAAATCGAGA
B2: Pestivirus strain Aydin (nucleic acid, listed as Pestivirus sp.)
DNA: GTATACGAGATTAGCTCATACTCGTGTACAAATTGGACGTAGCAAATTTAAAAATTCGGATAGGGTCCCCATCCAGCGACGGCCGAACGGGGTTAACCATACCTCTAGTAGGACTAGCAGACGGATGGACTAGCCACAGTGGTGAGCTCCCTGGGAGGTCTAAGTTCTGAGTACAGAACAGTCGTCAGTAGTTCAACGCTGGTAAACCCCAGCCTTGAGATGCTACGTGGACGAGGGCATGCCCAAGACACACCTTAACCTGGACGGGGGTCGTCCAGGTGAAAGTACCCATCTTTGGGTGCTGGGAGTACAGCCTGATAGGGCGCTGCAGAGGCCCACTGACAGGCTAGTATAAAAATCTCTGCTGTACATGGAAC
B3: Porcine reproductive and respiratory syndrome virus 2 (nucleic acid)
DNA: ATGACGTATAGGTGTTGGCTCTATGCCTTGGCATTTGTATTGTCAGGAGCTGTGACCATTGGCACAGCCCAAAACTTGCTGCACAGAAACACCCTTCTGTGATAGCCTCCTTCAGGGGAGCTTAGGGTTTGTCCCTAGCACCTTGCTTCCGGAGTTGCACTGCTTTACGGTCTCTCCACCCCTTTAACC
B4: Porcine enterovirus 9 (nucleic acid, listed as Enterovirus sp.)
DNA: GAACCTTAGAAGTTTACACAAACAAAGACCAATAGGAGTCCAACACCCAGTTGGATTGCGGTCAAGCACTTCTGTTTCCCCGGACCTAGTAGTGATAGGCTGTACCCACGGCCGAAGATGAACCCGTCCGTTATCCGGCTACCTACTTCGGGAAGCCTAGTAACATTCTGAAGTCTCTGAGGCGTTTCGCTCAGCACGACCCCGGTGTAGATCGGGCTGATGGGTCTCCGCATACCCCACGGGCGACCGTGGCGGAGGCCGCGTTGGCGGCCCGCCTATGGCGAAAGCCATAGGACGCCTCTTAGATGACAGGGTGTGAAGAGCCTACTGAGCTGGGTAGTAGTCCTCCGGCCCCTGAATGCGGCTAATCCTAACCACGGAGCGTCCACCAGCAATCCAGCTGGCAGGGCGTCGTAACGGGCAACTCTGTGGCGGAACCGACTACTTTGGGTGTCCGTGTTTCCTTTTGATCCTATTTTGGCTGCTTATGGTGACAACGATAAGTTGTTATCATAAAGCTCTTGGGTTGGCCACCTGGAAAAAGTTATCAGTGTTTGATATTGTTCGGCTCTCACGCCTACCAATAAGACAAGCCCTATATTTACTTGTTGCATTTTACTCGTCAGAAGAAATCACAGAGTATCATTTGGATTTGTTACTCACATTAAGGACAAG
B5: Picornavirus HK21 (nucleic acid)
DNA: AAACGGGAGGATCGGCTTTGGCTTATCCTCTTAATAGTCTACAAAACTGGGCTGACTGGTGGGGGAGCTACTAGATCCGGGAGAGGACTAGTTACCCCGCGTAACTTCCCTTTTTGTCACTCCCTCCACCTACCCCTTCCCTGTCCCTTAGACTCTTAAGTAGGTGTGCAGGCCTGGCCCCCCGGAAATGGGCAAATCGGACGTTTGCGTGTAGGGTCGTTCTGAAAGGTGGGGCCCACTCCACCGTAGTAGGATCTTCCTGTTTCACGTTTAAACCTCTCCGGGCAGGTATCGCTAGACACTAGGCTGTATAGGATGGCACGCACTTAGGTTTCGCACCTTCCTAGTGCGCCAAGATCCCGCTTTTGAGCTCAAGTACATGGTTCTTTGTAAGATGTCTAACCAGAGGAGGTGGTGCTGAAATATTGCAAGCCACTCTGGCGAACGTCCACTGCATTGCCTGGAACAGGCTCTCTAGCGCCCTCCACTGGTAGCGCGGTGGTGGGTTAGTAGGATACCTATATGGACAGGGGATGCGGGAATACCCCTCACTAGCTAGTGACTGGTTGATCGACTGGCGGCGGATCCAGTGATACTTGCATAATCCGCAGACTTGGGAG
B6: Phopivirus strain NewEngland (nucleic acid)
DNA: GGGAGTAAACCTCACCACCGTTTGCCGTGGTTTACGGCTACCTATTTTTGGATGTAAATATTAATTCCTGCAGGTTCAGGTCTCTTGAATTATGTCCACGCTAGTGGCACTCTCTTACCCATAAGTGACGCCTTAGCGGAACCTTTCTACACTTGATGTGGTTAGGGGTTACATTATTTCCCTGGGCCTTCTTTGGCCCTTTTTCCCCTGCACTATCATTCTTTCTTCCGGGCTCTCAGCATGCCAATGTTCCGACCGGTGCGCCCGCCGGGGTTAACTCCATGGTTAGCATGGAGCTGTAGGCCCTAAAAGTGCTGACACTGGAACTGGACTATTGAAGCATACACTGTTAACTGAAACATGTAACTCCAATCGATCTTCTACAAGGGGTAGGCTACGGGTGAAACCCCTTAGGTTAATACTCATATTGAGAGATACTTCTGATAGGTTAAGGTTGCTGGATAATGGTGAGTTTAACGACAAAAACCATTCAACAGCTGTGGGCCAACCTCATCAGGTAGATGCTTTTGGAGCCAAGTGCGTAGGGGTGTGTGTGGAAATGCTTCAGTGGAAGGTGCCCTCCCGAAAGGTCGTAGGGGTAATCAGGGGCAGTTAGGTTTCCACAATTACAATTTGAA
B7: Lesavirus 1 (nucleic acid)
DNA: GTAACTAATAAGCAAGTTTTACTGCCTGCAAACTGCTTCAATGGGACCACCGCTTCGGCGACCCCTTTGTTGAGTTTGTATGTTTTTAAGTAATCTTTGCAACCATACGATTATTTTAGCCGCCTCTCTATAATGATCTTGTTATAGTGGGACGTGAAACATTGGTTTTTCTCACACACGTCCGGTCACCCGGGCGTGTGTTCTTCCGTAAGTCCTATCCACATACCATCGTGGGTAGGCCAGCATGTTTGCACAGGCTGTGACAGTGTGGGTGGGCTTTCCACCTCTCAACAACACACTGAATTGCAATGCACTCACGGAGGAAATGACAATTTGGTTATAGTTTTGAACTGTGCTAGTAATTTCTTTCACATTAAGCCATGTTGCCTGCGGAATCACATGTGGTAACACATGCCTCAGGGCCCAAAAGGCACGGGTTAGCAGCCCCTTCATGGTGTGTTAGAAGTGAAAACACATAGTATGAGCTATAATATCTTTGTTGTCTTCTCTGTAGTGTACCCCGCCAAATGTAAGGATGCCCAGCAGGTACCCATTTTATGGATCTGAGCTGGGGATTGATAGTGTATCTATAAATGCACTGATCAATTTAAAAAGCGTCTAAGTTTGGCACAAACACTGGGGACAGTGTTTTTCCTTTATTCTTTTATTTGATTA
B8: Lesavirus 2 (nucleic acid)
DNA: TCTTTCTTTATTTTCTTATGTAACTCTTCTTTTTAAGTTTTATTTTGCCTACTTGTGAGCTTATGCGGGACCACTGTCTTAGACAACCCCACATTTGTCATGAGTAAGTACACGCAACCATTACGATTACTTTTTAACCGTCTGACCTTTTGATAACAACTGAAGTTAGGCGTGAAACATGCATTTATACCAAAGTAGCCCCGCATTTCCCCACTACGGTGGGGGGGCTACCCTACTGGCTTTGGAACTGTAGCCATTATGTGTTGCCTGGCTTTCAGGATCTCACAACACAACAGTTCTCTCACAATGGAATATGGGTGAGATTGCAGTGACATGAACAAGTATCTAGTAGTACATAGACTCAAGCCTAGTTGCCTGCGGAACAACATGTGGTAACACATGCCCCAGGGTCCAAAAGACAAGGGTTAACAGCCCCTTCTAGGTGTCTGTGTGTGAAGAATACTTTAGTAGTGTTGTTATGATCTCACCTGTTAGTACAGAATGAGTATGGCTTGGTGAAGGATGTCCTACAGGTACCCATTATATGGATCTGAGTAGGAGACCACTAGTGGTGGCTTTACCGCCAGGTGAGTGGTTTAAAAAGCGTCTAGCCAAGCCAACAGCACTAGGGATAGTGCTTTCTATATTTTATATTTTCAGTGTATATGGTGACAA
B9: Quail picornavirus QPV1 (nucleic acid)
DNA: TTTGCATCAGTTCGCCCCTCCCCTCACCATACCTTTTTCCCCTCTTTAGGACTGATACTTGGTTATGATGAGCAGAGGATTTCGCAAGTTATGCTTCTTGATAAAAAGTAATTCACGAATCATGGGATTATAGCCTGGAAGTGAACACTCATGTGGCAAGTGGGTTAGTAGCTCTCCATGTTCCCATGTGCAGTGGACTGACAACAGTGAGTTCGGGGTTGTGTAGTAAAGGGAAAGTATTACTTACCCGCACCTGCTATACGTGGTGTACGTAGGATACGAGTTAGTAGTGCTTAGCAACTTTAAACTGGTGCTGAAATATTGCAAGGTCACTGAAGTTGTGAACGCGAACGCTCCGCCACTGCCATGTATAGCGTGCAATGCATAAATGGTGCACTACATGATACGAGGGAATGGGAAACCCTCCATGGCCGAATGCAGGGTGACAGCCTGCCGGCGGATGCCTGTTGTTAGTATAATCCGTTGTTTGCCAC
B10: Ludopivirus (nucleic acid, listed as Ludopivirus sp.)
DNA: TAGACCCCCACCTAGCCCTTTTCCCCGTCAGTGGGGGGCTTACTCACTGGGCATCTGTTAATCTGGCCTAACTAGATTGACACCACTCCCTTGGAACGTAACTCCACGCTAACTCACTGGCTCTACGCACAGACACACGGTCTTTCTGCTATCCCCGGGGAAGATACCAGATGGCGACCGGCTGTCCCAGCGGCCTAGTAGCTACTCGGGTTGAGTACCCACCACGGTTTTGACGCCTGCTAAAATTCAAGAGACAGAGGTAGGGGTGCTTAGTGTGTGGGGGAAGTTCCCACAAGCGAGGCAAAGCATTGCTCCCTCGCGTCACCGGGTGCAAGGTAAATTGGCTGGACTTCCGCTCTACCCTTGCTACTCGCCCTCTTCGGAGGGTTCGAAGTGACACTAGGTATACGCATGGTTGGGAAACCATGCCTGGCCTACTACTGGGTGATAGCCTGGCGGCGGGTCCGTCTCTTGGCTTATACCCGTTGATTTGGGAT

These molecules were tested on HEK293 cells. Settings: luminescence from secreted Gluc in supernatant 24 hours after transfection of HEK293 cells; circular RNA encoding Gluc with the named IRES (UTR truncated to 675 nt).
Format: cell-based, human
Molecule B1 has an Expression of 1.24E+05.
Work on B2 yielded an Expression of 3.11E+06.
B3 showed an Expression of 1.29E+05.
In the case of B4, the Expression is reported as 3.20E+07.
B5 gave an Expression of 4.09E+05.
B6 was tested, and the Expression was 1.06E+05.
Molecule B7 has an Expression of 6.37E+06.
Work on B8 yielded an Expression of 3.67E+07.
Molecule B9 has an Expression of 6.55E+07.
Molecule B10 has an Expression of 1.05E+05.
